Assay results: paper PMC2797608

Biological target: methyltransferase domain of human GLP (residues 951-1235) (human)
Assay: not stated; affinity of GLP for H3 peptides; the method of the affinity is not told; the methods describe only a SAHH-coupled kinetic assay of GLP (Km, kcat; peptide 2 uM to 4 mM, 70 uM SAM, room temperature, 25 mM potassium phosphate pH 8)

decrease in affinity against the peptide not methylated at K4: 43%
Substance: H3K9 peptide trimethylated at lysine 4
